Columns and labels:
G-CSF = test: Example 16 lipid nanoparticle in vivo study, serum G-CSF ELISA; set-up: species or system mice; details: for G-CSF Serum Concentration 8-12 hours after administration: IV (LNP); for G-CSF Protein Expression, Conc: mice IV LNP, serum 8 hrs
Experimental: Mice were sacrificed at 8 hrs after dosing. […] Protein expression was determined by ELISA.
As used in Table 30, the symbol “˜” means about.

HEK293 = test: Example 46B percent-modified G-CSF mRNA transfected in HEK293, secreted G-CSF ELISA; type: cell-based, human
Experimental: Human embryonic kidney epithelial (HEK293) cells were seeded on 96-well plates at a density of 30,000 cells per well in 100 ul cell culture medium. 250 ng of modified G-CSF mRNA (SEQ ID NO: 6; polyA tail of approximately 160 nucleotides not shown in sequence; 5′cap, Cap1) formulated with RNAiMAX™ (Invitrogen, Carlsbad, Calif.) was added to a well. The G-CSF was completely modified with 5mC and pseudoU (100% modification), not modified with 5mC and pseudoU (0% modification) or was partially modified with 5mC and pseudoU so the mRNA would contain 75% modification, 50% modification or 25% modification. Control samples (AK 5/2, mCherry (SEQ ID NO: 7; polyA tail of approximately 160 nucleotides not shown in sequence; 5′cap, Cap1; fully modified 5mC and pseudoU) and untreated) were also analyzed. […] The supernatants were harvested after 16 hours and the secreted G-CSF protein was analyzed by ELISA.

B1: G-CSF: human G-CSF mRNA SEQ ID NO: 6, polyA ~160 nt, Cap1, fully modified with 5-methylcytosine and pseudouridine (nucleic acid, listed as Homo sapiens)
chain: GGGAAAUAAGAGAGAAAAGAAGAGUAAGAAGAAAUAUAAGAGCCACCAUGGCCGGUCCCGCGACCCAAAGCCCCAUGAAACUUAUGGCCCUGCAGUUGCUGCUUUGGCACUCGGCCCUCUGGACAGUCCAAGAAGCGACUCCUCUCGGACCUGCCUCAUCGUUGCCGCAGUCAUUCCUUUUGAAGUGUCUGGAGCAGGUGCGAAAGAUUCAGGGCGAUGGAGCCGCACUCCAAGAGAAGCUCUGCGCGACAUACAAACUUUGCCAUCCCGAGGAGCUCGUACUGCUCGGGCACAGCUUGGGGAUUCCCUGGGCUCCUCUCUCGUCCUGUCCGUCGCAGGCUUUGCAGUUGGCAGGGUGCCUUUCCCAGCUCCACUCCGGUUUGUUCUUGUAUCAGGGACUGCUGCAAGCCCUUGAGGGAAUCUCGCCAGAAUUGGGCCCGACGCUGGACACGUUGCAGCUCGACGUGGCGGAUUUCGCAACAACCAUCUGGCAGCAGAUGGAGGAACUGGGGAUGGCACCCGCGCUGCAGCCCACGCAGGGGGCAAUGCCGGCCUUUGCGUCCGCGUUUCAGCGCAGGGCGGGUGGAGUCCUCGUAGCGAGCCACCUUCAAUCAUUUUUGGAAGUCUCGUACCGGGUGCUGAGACAUCUUGCGCAGCCGUGAAGCGCUGCCUUCUGCGGGGCUUGCCUUCUGGCCAUGCCCUUCUUCUCUCCCUUGCACCUGUACCUCUUGGUCUUUGAAUAAAGCCUGAGUAGGAAG
modifications: polyA ~160, Cap1, 5mC/pseudouridine modified
- G-CSF Serum Concentration 8-12 hours after administration (G-CSF; 1 ug): ~20,000 pg/ml
- G-CSF Serum Concentration 8-12 hours after administration (G-CSF; 10 ug): ~1,000,000 pg/ml
- G-CSF Serum Concentration 8-12 hours after administration (G-CSF; 100 ug): ~5,000,000 pg/ml
- G-CSF Protein Expression, Conc (G-CSF; 10 ug): 1204.82 ng/mL
- G-CSF Protein Expression, Conc (G-CSF; 100 ug): 4722.20 ng/mL
- half-life (HEK293): 8 to 10 h
